These are literature values, as cited in PMC2981439.

A word on the Kd: it is the concentration at which binding is half-saturated.

This data set addresses quinone MADH (Paracoccus denitrificans) (UniProt P22619).
Chain of UniProt P22619 (P22619 58-188, chain 1 of 2): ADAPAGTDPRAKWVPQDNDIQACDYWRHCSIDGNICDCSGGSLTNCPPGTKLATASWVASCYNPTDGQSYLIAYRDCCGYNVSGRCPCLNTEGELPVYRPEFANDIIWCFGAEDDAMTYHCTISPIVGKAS
Chain of UniProt P22619 (P29894 29-417, chain 2 of 2, further chain): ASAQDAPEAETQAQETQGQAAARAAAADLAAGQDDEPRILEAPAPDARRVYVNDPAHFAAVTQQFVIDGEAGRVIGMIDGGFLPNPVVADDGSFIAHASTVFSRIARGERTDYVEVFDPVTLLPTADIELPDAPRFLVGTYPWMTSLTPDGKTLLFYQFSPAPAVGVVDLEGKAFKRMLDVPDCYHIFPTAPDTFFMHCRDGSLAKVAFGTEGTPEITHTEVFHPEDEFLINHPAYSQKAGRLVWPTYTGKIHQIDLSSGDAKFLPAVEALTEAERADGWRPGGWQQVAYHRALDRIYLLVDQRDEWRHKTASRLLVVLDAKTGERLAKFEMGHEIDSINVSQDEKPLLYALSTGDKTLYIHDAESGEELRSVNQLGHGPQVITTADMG

As to MauG (from UniProt Q51658), the dissociation constant (Kd) is 10.1 µM.
